The target in test [1] is T1, secreted, soluble furin (human, UniProt P09958 108-715, limits assumed).
T1 construct: Secreted, soluble construct; also called human furin
Briefly: rapid furin inhibition assay; table lists substitutions with equal or enhanced inhibition of furin relative to the template. The method, then: 3. Rapid screening of libraries. Libraries were introduced into E. coli BL21 (DE3) cells and individual, cloned transformants were grown by shaking at 37° C. in 200 μl LB containing […] kanamycin in 96-well, 0.45 μm GHP membrane filter plates (Gelman) (FIG. 2). When O.D. 600 values reached 0.4, 60 μl of culture were transferred to secondary 96-well plates (Falcon), adjusted to 10% glycerol, and stored at −80° C. These frozen stocks served as master copies of the libraries. IPTG was added to the cultures to a final concentration of 1 mM, and the cultures were allowed to express eglin c variants for one hour in the filter plate. Expressed eglin c variants were extracted from the cells with 50 mM Tris-HCl pH 8.0 containing 2 mM EDTA following freezing and thawing. These extracts were collected as filtrates by centrifugation of the filter plate above a second plate. The filtrates, representing partially purified eglin c variants, were analyzed using a rapid fluorescence-based assay for processing enzyme inhibition as described below in Section 5. […] Frozen cells were cultured in 50 to 100 ml culture volumes, and DNA maxipreps were performed; the DNA preparations were then sequenced by automated DNA sequencing. Selected variants were expressed and purified on a larger scale, and affinities for furin or Kex2 were examined quantitatively (see below).
5. Rapid protease inhibition assay. Novel eglin variants were diluted 50-fold and incubated with secreted, soluble furin (0.5 nM) for 15 min in 96-well plates. The furin substrate (Boc-Arg-Val-Arg-Arg-MCA) was added, and release of AMC was monitored continuously in a 96-well fluorescence plate reader for 20 min, as described under Example 1. […] The plasmid DNA encoding such eglin c variant inhibitors were isolated and sequenced.

Test [2] deals with T2, secreted, soluble Kex2 (Saccharomyces cerevisiae, UniProt P13134 114-613, limits assumed).
T2 construct: Secreted, soluble construct; also called kexin
T2 sequence (looked up): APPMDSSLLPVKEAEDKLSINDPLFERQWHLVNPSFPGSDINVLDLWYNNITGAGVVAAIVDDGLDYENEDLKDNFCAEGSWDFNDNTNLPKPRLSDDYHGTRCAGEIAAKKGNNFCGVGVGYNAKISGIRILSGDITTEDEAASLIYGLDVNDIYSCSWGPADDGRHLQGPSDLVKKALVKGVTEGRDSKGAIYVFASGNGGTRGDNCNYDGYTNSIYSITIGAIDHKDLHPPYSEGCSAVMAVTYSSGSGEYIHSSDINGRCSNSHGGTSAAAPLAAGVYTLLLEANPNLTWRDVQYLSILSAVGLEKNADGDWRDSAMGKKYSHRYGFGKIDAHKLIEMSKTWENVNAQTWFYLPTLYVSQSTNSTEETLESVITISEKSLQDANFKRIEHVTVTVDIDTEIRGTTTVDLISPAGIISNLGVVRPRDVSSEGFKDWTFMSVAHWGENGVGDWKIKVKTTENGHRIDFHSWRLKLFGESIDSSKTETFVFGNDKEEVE
The test is described as follows: enzyme inhibition, purified variant. The method, then: (§1) Affinities of eglin variants with secreted, soluble Kex2 (hereafter “Kex2”; Brenner, C. and Fuller, R. S. (1992) Proc. Natl. Acad. Sci. USA 89: 922-926) and secreted, soluble furin (hereafter, “furin”; Bravo, D. A. et al (1994) J. Biol. Chem. 269: 25830-25837; and Komiyama & Fuller (2000) Biochemistry 39: 15156-15165) were measured by incubating variants with the enzymes (˜0.5 to 2.0 nM) for 45 min to 1 h at 21° C. in one of two enzyme assay buffers. For Kex2, the buffer was 200 mM Bistris (pH 7.27) containing 1 mM CaCl₂ and 0.1% Triton X-100; and for furin, the buffer was 20 mM NaMES (pH 7.0) containing 1 mM CaCl₂ and 0.1% Triton X-100 for furin. 100 to 200 μL aliquots of reaction mixtures were transferred into triplicate wells of opaque 96 well plates (Costar), and residual enzyme activity was measured with an fmax fluorescence micro plate reader (Molecular Devices) by monitoring hydrolysis of a fluorogenic substrate Boc-Arg-Val-Arg-Arg-MCA. Data were graphically analyzed (KaleidaGraph) with an equation developed by Green and Work (1953). Site-directed mutagenesis at P2 and P6 of eglin c generated temporary inhibitors (Table 3) and exhausted possibility to improve affinity further with this approach.

Test [3] deals with T1, secreted, soluble furin. The test is described as follows: enzyme inhibition, purified variant. The method, then: as §1
The target of test [4] is T2, secreted, soluble Kex2. Briefly: enzyme inhibition, purified variant. This is another data set of the same source.
For a further test, the target named is T3, human PC7 (human, UniProt Q16549 142-667, limits assumed).
T3 sequence (looked up): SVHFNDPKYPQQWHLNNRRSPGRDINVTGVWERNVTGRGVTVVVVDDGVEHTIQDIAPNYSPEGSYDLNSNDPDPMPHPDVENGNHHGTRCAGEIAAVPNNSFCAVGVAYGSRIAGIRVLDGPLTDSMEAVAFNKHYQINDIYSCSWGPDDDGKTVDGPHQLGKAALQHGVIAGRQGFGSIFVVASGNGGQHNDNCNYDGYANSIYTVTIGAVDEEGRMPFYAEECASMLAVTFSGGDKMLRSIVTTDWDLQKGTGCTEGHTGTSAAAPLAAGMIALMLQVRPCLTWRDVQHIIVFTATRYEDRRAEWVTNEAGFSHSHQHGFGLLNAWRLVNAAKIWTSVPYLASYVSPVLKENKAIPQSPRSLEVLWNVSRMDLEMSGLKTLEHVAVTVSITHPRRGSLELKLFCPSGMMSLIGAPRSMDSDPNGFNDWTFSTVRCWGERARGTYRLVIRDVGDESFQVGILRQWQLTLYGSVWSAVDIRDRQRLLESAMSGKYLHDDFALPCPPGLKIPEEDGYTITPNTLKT
The test is described as follows: enzyme inhibition, purified variant.

For test [5], the target named is T1, secreted, soluble furin. The test is described as follows: enzyme inhibition, purified variant. This is another data set of the same source.
Test [6] has as its target T2, secreted, soluble Kex2. The test is described as follows: equilibrium enzyme inhibition, fluorogenic substrate. The method, then:
as §1

Test [7] concerns the target T1, secreted, soluble furin. The description is as above. The method, then: as §1
The target in test [8] is T2, secreted, soluble Kex2. Briefly: equilibrium enzyme inhibition. The method, then:
(§2) Thus, R1-eglin refers to substitution of Arg at position P1.
(§3) Affinities of eglin variants with secreted, soluble Kex2 (hereafter “Kex2”; Brenner, C. and Fuller, R. S. (1992) Proc. Natl. Acad. Sci. USA 89: 922-926) and secreted, soluble furin (hereafter, “furin”; Bravo, D. A. et al (1994) J. Biol. Chem. 269: 25830-25837; and Komiyama & Fuller (2000) Biochemistry 39: 15156-15165) were measured by incubating variants with the enzymes (˜0.5 to 2.0 nM) for 45 min to 1 h at 21° C. in one of two enzyme assay buffers. For Kex2, the buffer was 200 mM Bistris (pH 7.27) containing 1 mM CaCl₂ and 0.1% Triton X-100; and for furin, the buffer was 20 mM NaMES (pH 7.0) containing 1 mM CaCl₂ and 0.1% Triton X-100 for furin.

In test [9] the target is T1, secreted, soluble furin. The test is described as follows: equilibrium enzyme inhibition. The method, then: as §2, §3
Test [10] deals with T2, secreted, soluble Kex2. Briefly: affinity of purified variants, enzyme inhibition.

Substitutions are numbered along the chain they refer to.

T1 sequence (P09958 108-715 limits assumed): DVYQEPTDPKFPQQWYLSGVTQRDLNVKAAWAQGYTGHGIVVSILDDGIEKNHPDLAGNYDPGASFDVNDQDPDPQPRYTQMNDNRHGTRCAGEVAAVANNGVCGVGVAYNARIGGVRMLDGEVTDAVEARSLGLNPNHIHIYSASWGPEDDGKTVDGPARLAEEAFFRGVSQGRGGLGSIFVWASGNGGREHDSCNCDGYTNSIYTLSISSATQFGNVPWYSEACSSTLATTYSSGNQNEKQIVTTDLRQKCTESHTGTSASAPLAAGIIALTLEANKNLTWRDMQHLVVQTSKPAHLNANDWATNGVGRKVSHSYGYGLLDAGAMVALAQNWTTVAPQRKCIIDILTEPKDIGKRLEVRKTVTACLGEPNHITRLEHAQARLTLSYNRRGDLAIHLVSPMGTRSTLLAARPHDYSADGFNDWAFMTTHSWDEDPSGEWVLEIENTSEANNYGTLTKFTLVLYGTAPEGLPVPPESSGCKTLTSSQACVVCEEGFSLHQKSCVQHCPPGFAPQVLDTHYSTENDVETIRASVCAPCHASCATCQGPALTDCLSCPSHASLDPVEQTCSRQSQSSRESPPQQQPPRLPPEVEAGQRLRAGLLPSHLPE

B1: Asn50Asp-R4K1-eglin (designed binder)
chain: SMGSELKSFPEVVGKTVDQAREYFTLHYPQYDVYFLPEGSRVTKDLRYDRVRVFYNPGTNVVNHVPHVG
With B1, the binding result with secreted, soluble furin [1] is on record as “binds”.

B2: Leu37Gly-R4K1-eglin (designed binder)
chain: B1 chain with L36G, D49N
notes: R4K1 template; N-terminal Met removed
Turning to B2, in the test with secreted, soluble Kex2 [2], the Ki came to 1.6 nM and the “Ki ratio (to R4K1- template)” value turned out to be 0.625. In the test with secreted, soluble furin [3], affinity was put at a Ki of 29 nM and the “Ki ratio (to R4K1- template)” value was found to be 0.769.

B3: Ser49-R4R1-eglin (designed binder)
chain: B1 chain with K44R, Y48S, D49N
notes: R4R1 template; N-terminal Met removed
Turning to B3, the Ki came out at 0.21 nM with secreted, soluble Kex2 [4]; 2.5 nM with human PC7; 4.8 nM in the test with secreted, soluble furin [5].

B4: Trp49-R4R1-eglin (designed binder)
chain: B1 chain with K44R, Y48W, D49N
notes: as for B3
As for B4, the Ki with secreted, soluble Kex2 [4] was found to be 1.2 nM; with human PC7 it was 0.47 nM; with secreted, soluble furin [5], 10 nM.

B5: Asp33Gly-R4K1-eglin (designed binder)
chain: B1 chain with D32G, D49N
In the case of B5, the binding result in the test with secreted, soluble furin [1] is “binds”.

B6: Met49-R4R1-eglin (designed binder)
chain: B1 chain with K44R, Y48M, D49N
notes: as for B3
Consider B6, for which the Ki in the test with secreted, soluble Kex2 [4] was 1 nM; with human PC7 it was 1.4 nM; with secreted, soluble furin [5] it was 1.6 nM.

B7: Gly40Ala-R4R1-eglin (designed binder)
chain: B1 chain with G39A, K44R, D49N
On to B7, for which the binding result with secreted, soluble furin [1] is recorded as “binds”.

B8: Asp33Val-R4K1-eglin (designed binder)
chain: B1 chain with D32V, D49N
notes: as for B2
Regarding B8, the Ki worked out at 1.2 nM in the test with secreted, soluble Kex2 [2] and 17 nM in the test with secreted, soluble furin [3]. Besides, the “Ki ratio (to R4K1- template)” value in the test with secreted, soluble Kex2 [2] was 0.476; with secreted, soluble furin [3], 0.455.

B9: Gly40Pro-R4R1-eglin (designed binder)
chain: B1 chain with G39P, K44R, D49N
Regarding B9, in the test with secreted, soluble furin [1], the binding result is recorded as “binds”.

B10: Leu47Val-R4R1-eglin (designed binder)
chain: B1 chain with K44R, L46V, D49N
As for B10, the binding result with secreted, soluble furin [1] is on record as “binds”.

B11: Tyr49Ala-R4R1-eglin (designed binder)
chain: B1 chain with K44R, Y48A, D49N
notes: R4R1 template; N-terminal Met removed; also called Ala49-R4R1-
As for B11, the Ki is 1 nM with secreted, soluble Kex2 [2]; 1.3 nM with secreted, soluble furin [3]; 1 nM in the test with secreted, soluble Kex2 [4]; 2.9 nM in the test with human PC7; 1.8 nM with secreted, soluble furin [5]. Also, the “Ki ratio (to R4R1- template)” value with secreted, soluble Kex2 [2] worked out at 1.1; with secreted, soluble furin [3], 0.526. Also, in the test with secreted, soluble furin [3], the “fold increase in affinity (relative to R4R1-eglin)” value is roughly 2 fold.

B12: Glu49-R4R1-eglin (designed binder)
chain: B1 chain with K44R, Y48E, D49N
notes: as for B3
On to B12, for which the Ki worked out at 0.036 nM with secreted, soluble Kex2 [4]; 2.9 nM with human PC7; 0.53 nM in the test with secreted, soluble furin [5].

B13: R4-eglin (designed binder)
chain: B1 chain with K44L, D49N
notes: N-terminal Met removed; also called R4L1-eglin
With B13, the Ki with secreted, soluble Kex2 [6] worked out at 100000 nM; in the test with secreted, soluble furin [7] it was 56000 nM. In addition, the “fold increase in affinity relative to L1-eglin” value in the test with secreted, soluble Kex2 [8] is 5 fold. Besides, in the test with secreted, soluble furin [9], the “fold enhancement of affinity relative to L1-eglin” value lay in the range of 2 to 3 fold.

B14: Asp33Ile-R4K1-eglin (designed binder)
chain: B1 chain with D32I, D49N
On to B14, for which the binding result with secreted, soluble furin [1] is “binds”.

B15: Glu39His-R4R1-eglin (designed binder)
chain: B1 chain with E38H, K44R, D49N
On to B15, for which the binding result is “binds” in the test with secreted, soluble Kex2 [10] and “binds” with secreted, soluble furin [1].

B16: Glu39Cys-R4R1-eglin (designed binder)
chain: B1 chain with E38C, K44R, D49N
B16: the binding result with secreted, soluble Kex2 [10] was “binds”; in the test with secreted, soluble furin [1], “binds”.

B17: Glu39Gly-R4R1-eglin (designed binder)
chain: B1 chain with E38G, K44R, D49N
With B17, the binding result in the test with secreted, soluble Kex2 [10] is listed as “binds”; with secreted, soluble furin [1] it was “binds”.

B18: M4K1-eglin (designed binder)
chain: B1 chain with R41M, D49N
notes: N-terminal Met removed
As for B18, the Ki with secreted, soluble Kex2 [6] turned out to be 4.5 nM; with secreted, soluble furin [7] it was 17000 nM. Further, the “fold decrease of Ka relative to M4R1-eglin” value in the test with secreted, soluble Kex2 [8] turned out to be 13.2 fold; with secreted, soluble furin [9] it was 4.7 fold.

B19: Tyr35Ile-R4R1-eglin (designed binder)
chain: B1 chain with Y34I, K44R, D49N
Regarding B19, the binding result in the test with secreted, soluble furin [1] is “binds”.

One may read the Ki as a measure of affinity in units of concentration, obtained from inhibition or displacement. High values mean a looser hold on the target, low ones a stronger hold on the target.

The values above are taken from US20050203007A1 (REGENTS OF THE UNIVERSITY OF MICHIGAN, published 2005).
